# Where “and” joins values, the source holds several entries; their conditions need not be identical. Equal entries are not always repeated.
# Legend:
# [1] = substrate: CCCCCCCCCCCCCCOS(=O)(=O)O; assay: Steady-state NADPH oxidation; type: biochemical, Bacillus megaterium; conditions: other: rates of NADPH oxidation, 23 °C, pH 7.4
# [2] = substrate: CCCCCCCCCCCCCCCC(=O)O; assay: Steady-state NADPH oxidation; type: biochemical, Bacillus megaterium; conditions: other: rates of NADPH oxidation, hyperbolic fit, 23 °C, pH 7.4
protein,measurement,setting,value
P450BM-3 (Priestia megaterium NBRC 15308 = ATCC 14581) (protein) MTIKEMPQPKTFGELKNLPLLNTDKPVQALMKIADELGEIFKFEAPGRVTRYLSSQRLIKEACDESRFDKNLSQALKFVRDFAGDGLFTSWTHEKNWKKAHNILLPSFSQQAMKGYHAMMVDIAVQLVQKWERLNADEHIEVPEDMTRLTLDTIGLCGFNYRFNSFYRDQPHPFITSMVRALDEAMNKLQRANPDDPAYDENKRQFQEDIKVMNDLVDKIIADRKASGEQSDDLLTHMLNGKDPETGEPLDDENIRYQIITFLIAGHETTSGLLSFALYFLVKNPHVLQKAAEEAARVLVDPVPSYKQVKQLKYVGMVLNEALRLWPTAPAFSLYAKEDTVLGGEYPLEKGDELMVLIPQLHRDKTIWGDDVEEFRPERFENPSAIPQHAFKPFGNGQRACIGQQFALHEATLVLGMMLKHFDFEDHTNYELDIKETLTLKPEGFVVKAKSKKIPLGGIPSPSTEQSAKKVRKKAENAHNTPLLVLYGSNMGTAEGTARDLADIAMSKGFAPQVATLDSHAGNLPREGAVLIVTASYNGHPPDNAKQFVDWLDQASADEVKGVRYSVFGCGDKNWATTYQKVPAFIDETLAAKGAENIADRGEADASDDFEGTYEEWREHMWSDVAAYFNLDIENSEDNKSTLSLQFVDSAADMPLAKMHGAFSTNVVASKELQQPGSARSTRHLEIELPKEASYQEGDHLGVIPRNYEGIVNRVTARFGLDASQQIRLEAEEEKLAHLPLAKTVSVEELLQYVELQDPVTRTQLRAMAAKTVCPPHKVELEALLEKQAYKEQVLAKRLTMLELLEKYPACEMKFSEFIALLPSIRPRYYSISSSPRVDEKQASITVSVVSGEAWSGYGEYKGIASNYLAELQEGDTITCFISTPQSEFTLPKDPETPLIMVGPGTGVAPFRGFVQARKQLKEQGQSLGEAHLYFGCRSPHEDYLYQEELENAQSEGIITLHTAFSRMPNQPKTYVQHVMEQDGKKLIELLDQGAHFYICGDGSQMAPAVEATLMKSYADVHQVSEADARLWLQQLEEKGRYAKDVWAG,kcat/Km,[1],7.7e+06 M⁻¹ s⁻¹ and 3e+06 M⁻¹ s⁻¹
same,Km,[1]; hyperbolic fit,4.2 ± 0.6 µM
same,kcat,[1]; hyperbolic fit,32.33 s⁻¹
same,kcat/Km,[1]; hyperbolic fit,7.67e+06 ± 1e+06 M⁻¹ s⁻¹
same,Km,[2],67 ± 8 µM
